Laboratory results taken from US20230391888A1 (Sanofi, published 2023).
Substitutions are numbered along the chain they refer to.

How the values were obtained:
[1] = molecular target: T1, human HER2 (1129-ER, R&D Systems) (human, UniProt P04626 23-652); experiment: SPR (BIAcore 3000), binding test with HER2 captured by the anti-human Fc antibody, constructs injected at 100 nM; response as % of theoretical Rmax
T1 construct: also called Receptor tyrosine-protein kinase erbB-2

[2] = molecular target: T2, human IL13 (IL012, Millipore) (human, UniProt P35225 35-146); experiment: SPR, BIAcore 3000; antibody captured by anti-human Fc, antigen as analyte
Description: (§1) Surface plasmon resonance (SPR) was used to assess the binding of antigens to antibody. Binding of antigens to the antibody constructs was measured using surface plasmon resonance (SPR) with a BIAcore 3000 instrument (GE Healthcare) with HBS-EP buffer (GE Healthcare). Human IL4 (IL004, Millipore) and human IL13 (IL012, Millipore), human HER2 (1129-ER, R&D Systems), human TNFa (H8916, SIGMA Aldrich), human CTLA4 (CT4-H5229, ACRO Biosystems), human PD-1 (8986-PD, R&D Systems), and human IL6Ra (227-SR/CF, R&D Systems) were used as antigens. The anti-human Fc capture antibody (human antibody capture kit, GE Life Sciences) was immobilized via primary amine groups (11000 RU) on a research grade CM5 chip (GE Life Sciences) using standard procedures. […] Binding tests with HER2 was performed by capture of the antigen with the anti-human Fc antibody. The tested antibody constructs were used as analytes and injected at 100 nM concentration for 240 sec with a dissociation time of 300 sec at a flow rate of 30 μL/min. Binding kinetics measurements were done using the captured antibodies with injects of two-fold serial dilutions of the analytes of 3 nM to 100 nM. […] Chip surfaces were regenerated with 2 min injects of the regeneration buffer provided with the capture kit. Sensorgrams were double referenced with a blank chip surface and HBS-EP buffer blanks. Data analysis was performed using the BIAevaluation software v4.1.

[3] = molecular target: T2, human IL13 (IL012, Millipore); experiment: SPR, BIAcore 3000; antibody captured by anti-human Fc, antigen as analyte; column head says nM, but kd/ka gives M
Description: as §1

[4] = molecular target: T2, human IL13 (IL012, Millipore); experiment: SPR, BIAcore 3000; antibody captured by anti-human Fc, antigen as analyte; the mark X is not explained
Description: as §1, with “Data analysis was performed using the BIAevaluation software v4.1.” left out

[5] = molecular target: T3, human PD-1 (8986-PD, R&D Systems) (human, UniProt Q15116 25-167); experiment: SPR, BIAcore 3000; antibody captured by anti-human Fc, antigen as analyte
Description: as §1

[6] = molecular target: T3, human PD-1 (8986-PD, R&D Systems); experiment: SPR, BIAcore 3000; antibody captured by anti-human Fc, antigen as analyte; column head says nM, but kd/ka gives M
Description: as §1

[7] = molecular target: T1, human HER2 (1129-ER, R&D Systems); experiment: SPR; HER2 captured with the anti-human Fc antibody, antibody constructs as analytes (method in paragraph 368); FIG. 5A-5B
Description: as §1

[8] = molecular target: CD123 on THP-1 target cells (UniProt P26951 19-378, limits assumed); experiment: cell-based or functional assay
[9] = molecular target: T4, human CD123-Fc-His fusion protein (internal source) (human, UniProt P26951 19-305); experiment: SPR, Biacore 8K; CD123-Fc-His captured by anti-His, antibody as analyte, 1:1 Langmuir fit
T4 construct: not shown: Fc and His tag
T4 sequence (looked up): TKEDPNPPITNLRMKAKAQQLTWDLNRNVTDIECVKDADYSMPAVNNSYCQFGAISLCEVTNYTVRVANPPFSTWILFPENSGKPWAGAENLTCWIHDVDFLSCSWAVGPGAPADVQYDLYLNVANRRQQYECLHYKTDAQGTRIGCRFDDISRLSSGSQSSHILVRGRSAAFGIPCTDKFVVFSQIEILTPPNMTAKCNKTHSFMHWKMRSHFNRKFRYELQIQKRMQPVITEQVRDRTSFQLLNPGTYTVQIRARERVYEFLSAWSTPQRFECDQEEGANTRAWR
Description: Binding of antigens to the antibody constructs was measured using surface plasmon resonance (SPR) with a BIAcore 8K instrument (GE Healthcare) with HBS-EP+ buffer (GE Healthcare). For binding kinetics and affinity determination human CD3εδ-Fc-His and human CD123-Fc-His fusion proteins (both from internal source) were used as antigens. The anti-His capture antibody (His capture kit, GE Life Sciences) was immobilized via primary amine groups (11000 RU) on a research grade CM5 chip (GE Life Sciences) using standard procedures. Antigens were captured by the anti-His capture chip surface at a flow rate of 10 μL/min for 90 sec to reach antibody binding levels between 10 and 30 RU. […] Dissociation was measured at 30 μL/min by injection of HBS-EP+ buffer for 1200 sec. The chip surface was regenerated by inject of regeneration buffer (His capture kit, GE Life Sciences). Sensorgrams were double referenced with a blank chip surface and H BS-EP+ buffer blanks. Data were fitted with a 1:1 Langmuir binding model for determination of kinetic and affinity constants ka, kd and KD using Biacore 8K Evaluation software v1.11.7442 (GE Healthcare).

[10] = molecular target: T5, Human IL4 (IL004, Millipore) (human, UniProt P05112 25-153); experiment: SPR, BIAcore 3000; antibody captured by anti-human Fc, antigen as analyte
T5 sequence (looked up): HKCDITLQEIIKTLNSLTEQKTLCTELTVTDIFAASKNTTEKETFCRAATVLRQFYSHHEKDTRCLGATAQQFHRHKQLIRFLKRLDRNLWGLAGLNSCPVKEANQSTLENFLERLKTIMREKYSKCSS
Description: as §1

[11] = molecular target: T5, Human IL4 (IL004, Millipore); experiment: SPR, BIAcore 3000; antibody captured by anti-human Fc, antigen as analyte; column head says nM, but kd/ka gives M
Description: as §1

T2 sequence (P35225 35-146 limits assumed): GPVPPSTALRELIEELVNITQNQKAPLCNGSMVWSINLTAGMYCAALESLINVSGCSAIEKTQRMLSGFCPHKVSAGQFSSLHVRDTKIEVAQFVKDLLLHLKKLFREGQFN
T3 sequence (Q15116 25-167 limits assumed): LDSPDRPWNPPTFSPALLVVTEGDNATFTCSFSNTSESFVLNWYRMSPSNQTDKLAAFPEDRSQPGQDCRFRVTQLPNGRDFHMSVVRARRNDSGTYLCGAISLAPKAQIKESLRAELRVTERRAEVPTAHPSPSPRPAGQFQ

B1: IL13 pseudo-IgG (ID 22) (antibody)
light: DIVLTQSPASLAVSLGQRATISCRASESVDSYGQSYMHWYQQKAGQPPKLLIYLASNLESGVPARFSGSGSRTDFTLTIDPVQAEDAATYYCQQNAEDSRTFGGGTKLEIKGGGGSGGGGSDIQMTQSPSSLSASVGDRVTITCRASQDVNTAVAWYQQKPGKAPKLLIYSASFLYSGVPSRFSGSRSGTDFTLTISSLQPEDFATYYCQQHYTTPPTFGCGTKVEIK
heavy: EVQLKESGPGLVAPGGSLSITCTVSGFSLTDSSINWVRQPPGKGLEWLGMIWGDGRIDYADALKSRLSISKDSSKSQVFLEMTSLRTDDTATYYCARDGYFPYAMDFWGQGTSVTVSSGGGGSGGGGSEVQLVESGGGLVQPGGSLRLSCAASGFNIKDTYIHWVRQAPGKCLEWVAEIYPTNGYTEYADSVKGRFTISADTSKNTAYLQMNSLRAEDTAVYYCSRWGGDGFYAMDYWGQGTLVTVSSDKTHTHHHHHH
notes: also called IL13 mAb Pseudo-IgG
binding result [1]: no binding (tested: 100 nM) | kon [2]: 1.54e+06 M⁻¹ s⁻¹ | Kd [3]: 0.425 pM | koff [4]: 6.56e-07 s⁻¹

B2: PD1 × IL13 bispecific (ID 26, anti-PD1-dsTrasKO2-Fc knob × anti-IL13-huIgG1 hole-RF) (bispecific antibody)
light 1: not shown
heavy 1: not shown
light 2: not shown
heavy 2: EVQLKESGPGLVAPGGSLSITCTVSGFSLTDSSINWVRQPPGKGLEWLGMIWGDGRIDYADALKSRLSISKDSSKSQVFLEMTSLRTDDTATYYCARDGYFPYAMDFWGQGTSVTVSSASTKGPSVFPLAPSSKSTSGGTAALGCLVKDYFPEPVTVSWNSGALTSGVHTFPAVLQSSGLYSLSSVVTVPSSSLGTQTYICNVNHKPSNTKVDKKVEPKSCDKTHTCPPCPAPELLGGPSVFLFPPKPKDTLMISRTPEVTCVVVDVSHEDPEVKFNWYVDGVEVHNAKTKPREEQYNSTYRVVSVLTVLHQDWLNGKEYKCKVSNKALPAPIEKTISKAKGQPREPQVCTLPPSRDELTKNQVSLSCAVKGFYPSDIAVEWESNGQPENNYKTTPPVLDSDGSFFLVSKLTVDKSRWQQGNVFSCSVMHEALHNRFTQKSLSLSPG
notes: PD1 arm is the pseudoFab (dsTrasKO2), IL13 arm the normal Fab
koff [5]: 0.0029 s⁻¹ | kon [5]: 131000 M⁻¹ s⁻¹ | koff [2]: 1.66e-05 s⁻¹ | kon [2]: 2.92e+06 M⁻¹ s⁻¹ | Kd [6]: 22100 pM | Kd [3]: 5.68 pM

B3: dsTrasKO variant 1 (dsTrasKO1) (antibody, V domains shown)
VH: EVQLVESGGGLVQPGGSLRLSCAASGFNIKDTAIHWVRQAPGKCLEWVAEIYPTNGYTEYADSVKGRFTISADTSKNTAYLQMNSLRAEDTAVYYCSRWGGDGFAAMDYWGQGTLVTVSS
VL: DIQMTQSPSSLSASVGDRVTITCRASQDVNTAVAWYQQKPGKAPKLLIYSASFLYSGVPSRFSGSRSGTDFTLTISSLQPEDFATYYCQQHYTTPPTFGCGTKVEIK
notes: also called dsTrastuKO variant 1; Variant1 (TrasKO1) with VH44C/VL100C disulfide
binding result [7]: no binding (tested: 100 nM)

B4: dsTrasKO variant 2 (dsTrasKO2) (antibody, V domains shown)
VH: B3 VH with A33Y, A105Y
VL: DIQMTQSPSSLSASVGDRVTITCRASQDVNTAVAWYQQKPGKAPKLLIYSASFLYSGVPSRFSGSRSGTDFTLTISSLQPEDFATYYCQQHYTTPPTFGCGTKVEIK
notes: also called dsTrastuKO variant 2; Variant2 (TrasKO2) with VH44C/VL100C disulfide
binding result [7]: no binding (tested: 100 nM)

B5: dsTrasKO variant 3 (dsTrasKO3) (antibody, V domains shown)
VH: B3 VH with E50R, E59R
VL: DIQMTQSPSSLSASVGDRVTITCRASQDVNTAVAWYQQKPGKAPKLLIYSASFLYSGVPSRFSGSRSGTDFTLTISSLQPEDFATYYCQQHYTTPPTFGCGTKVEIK
notes: also called dsTrastuKO variant 3; Variant3 (TrasKO3) with VH44C/VL100C disulfide
binding result [7]: no binding (tested: 100 nM)

B6: anti-CD3ε-dsTrasKO2 × anti-CD123 (ID 38, alternative anti-CD3ε binding domain) (bispecific antibody, human IgG1, kappa, L234A L235A)
light 1: not shown
heavy 1: not shown
heavy 2: EVQLQQSGPELVKPGASVKMSCKASGYTFTDYYMKWVKQSHGKSLEWIGDIIPSNGATFYNQKFKGKATLTVDRSSSTAYMHLNSLTSEDSAVYYCTRSHLLRASWFAYWGQGTLVTVSAASTKGPSVFPLAPSSKSTSGGTAALGCLVKDYFPEPVTVSWNSGALTSGVHTFPAVLQSSGLYSLSSVVTVPSSSLGTQTYICNVNHKPSNTKVDKKVEPKSCDKTHTCPPCPAPEAAGGPSVFLFPPKPKDTLMISRTPEVTCVVVDVSHEDPEVKFNWYVDGVEVHNAKTKPREEQYNSTYRVVSVLTVLHQDWLNGKEYKCKVSNKALPAPIEKTISKAKGQPREPQVCTLPPSRDELTKNQVSLSCAVKGFYPSDIAVEWESNGQPENNYKTTPPVLDSDGSFFLVSKLTVDKSRWQQGNVFSCSVMHEALHNRFTQKSLSLSPG
light 2: DFVMTQSPSSLTVTAGEKVTMSCKSSQSLLNSGNQKNYLTWYLQKPGQPPKLLIYWASTRESGVPDRFTGSGSGTDFTLTISSVQAEDLAVYYCQNDYSYPYTFGGGTKLEIKRTVAAPSVFIFPPSDEQLKSGTASVVCLLNNFYPREAKVQWKVDNALQSGNSQESVTEQDSKDSTYSLSSTLTLSKADYEKHKVYACEVTHQGLSSPVTKSFNRGEC
Cytotox EC50 (dead CFSE/7-AAD double positive THP-1 target cells; human pan T cells, effector:target 10:1, 20 h) [8]: 0.95 pM | Kd [9]: 332 pM

B7: IL13 mAb (ID 3, anti-IL13-VL3-IGKC / anti-IL13-VH2-IGHG1) (antibody, human IgG1, kappa, V domains shown)
VH: EVQLKESGPGLVAPGGSLSITCTVSGFSLTDSSINWVRQPPGKGLEWLGMIWGDGRIDYADALKSRLSISKDSSKSQVFLEMTSLRTDDTATYYCARDGYFPYAMDFWGQGTSVTVSS
VL: DIVLTQSPASLAVSLGQRATISCRASESVDSYGQSYMHWYQQKAGQPPKLLIYLASNLESGVPARFSGSGSRTDFTLTIDPVQAEDAATYYCQQNAEDSRTFGGGTKLEIKR
notes: also called IL13mAb-huIgG1
koff [2]: 3.46e-05 s⁻¹ | kon [2]: 1.28e+06 M⁻¹ s⁻¹ | Kd [3]: 26.9 pM

B8: IL4 mAb (ID 18, anti-IL4-VL1-IGKC / anti-IL4-VH1-IgG1) (antibody, V domains shown)
VH: QVQLQQSGPELVKPGASVKISCKASGYSFTSYWIHWIKQRPGQGLEWIGMIDPSDGETRLNQRFQGRATLTVDESTSTAYMQLRSPTSEDSAVYYCTRLKEYGNYDSFYFDVWGAGTLVTVSS
VL: DIQMTQSPASLSVSVGDTITLTCHASQNIDVWLSWFQQKPGNIPKLLIYKASNLHTGVPSRFSGSGSGTGFTLTISSLQPEDIATYYCQQAHSYPFTFGGGTKLEIKR
notes: also called IL4mAb-huIgG1
koff [10]: 0.000161 s⁻¹ | kon [10]: 1.04e+08 M⁻¹ s⁻¹ | Kd [11]: 1.55 pM
